Measured values as given in PMC3589550 (Nature structural & molecular biology, 2011).
Entries after “also recorded” stand apart in the source; their conditions may differ.

Key:
[1] = molecular target: T1, HAUSP (Homo sapiens, UniProt Q93009); assay: In vitro deubiquitination; assay type: biochemical; details: immunopurified Flag-HAUSP complexes, K48-linked 3–7 polyubiquitin chains
[2] = system: p53; assay: p53 ubiquitination on vIRF4 expression; assay type: cell-based
[3] = molecular target: HAUSP TRAF domain (HAUSP^62–205) (Homo sapiens, UniProt Q93009); assay type: binding; details: ITC
Chain of HAUSP TRAF domain (HAUSP^62–205) (Q93009 62-205): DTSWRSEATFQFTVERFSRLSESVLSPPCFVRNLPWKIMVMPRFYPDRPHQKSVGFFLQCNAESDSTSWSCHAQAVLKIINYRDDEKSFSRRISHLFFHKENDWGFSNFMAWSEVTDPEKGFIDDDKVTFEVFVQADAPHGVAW

[4] = molecular target: T1, HAUSP; assay: Co-IP / GST pull-down of HAUSP; assay type: binding; details: transfected 293T cells

T1 sequence (Q93009 whole entry): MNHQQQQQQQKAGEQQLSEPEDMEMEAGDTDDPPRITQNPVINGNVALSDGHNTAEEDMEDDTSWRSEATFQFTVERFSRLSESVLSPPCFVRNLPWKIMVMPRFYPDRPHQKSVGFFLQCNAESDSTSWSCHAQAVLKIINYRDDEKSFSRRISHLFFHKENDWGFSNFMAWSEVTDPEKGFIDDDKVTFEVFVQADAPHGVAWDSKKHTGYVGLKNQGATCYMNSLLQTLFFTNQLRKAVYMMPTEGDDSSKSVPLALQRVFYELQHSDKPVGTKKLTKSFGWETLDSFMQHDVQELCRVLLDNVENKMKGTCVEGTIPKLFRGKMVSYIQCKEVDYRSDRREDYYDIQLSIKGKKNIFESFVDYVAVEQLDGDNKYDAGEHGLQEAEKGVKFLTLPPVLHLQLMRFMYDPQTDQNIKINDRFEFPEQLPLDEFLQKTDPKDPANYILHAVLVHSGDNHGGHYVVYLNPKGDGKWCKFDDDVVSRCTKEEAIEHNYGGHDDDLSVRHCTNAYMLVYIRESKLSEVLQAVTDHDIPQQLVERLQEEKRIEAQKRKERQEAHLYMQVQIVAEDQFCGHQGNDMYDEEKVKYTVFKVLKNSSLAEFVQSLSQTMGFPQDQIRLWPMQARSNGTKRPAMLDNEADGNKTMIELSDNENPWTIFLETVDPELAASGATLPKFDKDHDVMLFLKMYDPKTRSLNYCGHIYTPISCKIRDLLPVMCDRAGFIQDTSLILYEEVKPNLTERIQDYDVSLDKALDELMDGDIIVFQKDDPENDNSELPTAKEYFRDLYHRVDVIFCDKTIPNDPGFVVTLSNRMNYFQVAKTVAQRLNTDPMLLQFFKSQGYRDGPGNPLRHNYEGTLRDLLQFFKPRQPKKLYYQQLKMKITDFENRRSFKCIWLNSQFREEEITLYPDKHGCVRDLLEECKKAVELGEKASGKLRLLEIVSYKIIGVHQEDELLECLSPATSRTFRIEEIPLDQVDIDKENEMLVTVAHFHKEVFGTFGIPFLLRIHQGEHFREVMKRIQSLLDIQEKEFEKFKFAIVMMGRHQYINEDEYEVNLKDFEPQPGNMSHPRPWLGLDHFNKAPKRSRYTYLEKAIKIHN

B1: vIRF4: KSHV viral interferon regulatory factor 4 (protein)
chain: MPKAGGSEWATLWIIDALENNKFPYFSWFDRNNLLFAAPAPLPAGSDIPPGWYSVYHAFDEECDRVYGPSPVVGQTVYGRFGRLLRGTRRAVVRNDLRYSDTFGGSYVVWQLVRTPFKNCTYCYGAAYGPEKLQRFIQCLLSPPMQTTATRRSDTREQSYEEAGAAAPAPPKAPSGLRGRPRKSNRYYNVGDITTEQKAACSVWIPVNEGASTSGMGSSGTRQVTQASSFTWRVPGDPPAPSTLTGPSDPHSSGAGLPGTAPPKPQHETRLAGTVSGVSGVAQTPGDTGQLAPPMRDGSRLPSTSPWIPACFPWGDLPVTGWWPQGASGLPEKVHPPTTGQFDPLSPRWTYTGIPSSQLNPAAPSWIPPHAQAGTFVGEFSQGAPLAPQGLLPQSGQCASAWLPRRETGAEGACGASTEGRAPQGAASERVYPFEPQPPSAPAPGYAKPSCYNWSPLAEPPATRPIRAPVWHPPVGHAVVPEVRTPLWIPWSSGGAPNQGLSHTQGGASATPSAGAPPTPEVAERQEPSSSGIPYVCQGDNMATGYRRVTTSSGALEVEIIDLTGDSDTPSTTVASTPLPVSGPRVFQPTVLYSAPEPAVNPEVSHLPTELERRECVCPGSGERPRVPLVSTYAGDRYAVGGYGPEQSLVPPPLGLPLTLSNLQGEDICTWEEGLGNILSELQEEPSSSTRQATDRRRPRSRSPHGRRTPVSHSGPEKPPSKMFFDPPDSQRVSFVVEIFVYGNLRGTLRREGDAGEAMLCSWPVGDTLGHLCQSFVPELLRIPRLTVPSPEQMEILNRVFEGLGHGFPIFCSMSGIYSRNATQVEGWWFGNPNSRYERILRSFSPRVPQQLFNTARYLATTAAIPQTPLSVNPVTCGTVFFGASPASTENFQNVPLTVKIFIGSIWDSLH
modifications: left off: V5, end not stated, kept
[1]
  HAUSP DUB activity: effectively suppressed HAUSP DUB activity in a binding-dependent manner
[2]
  p53 ubiquitination: markedly induced p53 ubiquitination

B2: vIRF4^153–256/Δ202–216: vIRF4^153–256 with residues 202–216 deleted (protein)
chain: SDTREQSYEEAGAAAPAPPKAPSGLRGRPRKSNRYYNVGDITTEQKAACGSSGTRQVTQASSFTWRVPGDPPAPSTLTGPSDPHSSGAG
[3]
  TRAF binding affinity, in words: significant reduction of TRAF binding affinity

B3: vIRF4^153–256: central region fragment of vIRF4, residues 153–256 (protein)
chain: SDTREQSYEEAGAAAPAPPKAPSGLRGRPRKSNRYYNVGDITTEQKAACSVWIPVNEGASTSGMGSSGTRQVTQASSFTWRVPGDPPAPSTLTGPSDPHSSGAG
[3]; compared with vIRF4^153–216 / vIRF4^202–216
  fold higher TRAF affinity (C-terminally extended): 7 fold
[4]
  interaction with HAUSP: specifically interacts with; also recorded: sufficient to bind to HAUSP

B4: vIRF4^153–256/Δ202–216/Δ237–256: vIRF4^153–256 with residues 202–216 and 237–256 deleted (protein)
chain: SDTREQSYEEAGAAAPAPPKAPSGLRGRPRKSNRYYNVGDITTEQKAACGSSGTRQVTQASSFTWRVPG
[3]
  TRAF binding affinity, in words: had no further effect
